For assay [1], the target named is T1, human CD27, full length, on cells (T cells, transfected HEK293F cells, Daudi cells, NFκB-luc2/CD27 Jurkat … (human, UniProt P26842 20-240)).
T1 construct: Residues 1-19 are stated to be the signal peptide; also called TNFRSF7
T1 sequence: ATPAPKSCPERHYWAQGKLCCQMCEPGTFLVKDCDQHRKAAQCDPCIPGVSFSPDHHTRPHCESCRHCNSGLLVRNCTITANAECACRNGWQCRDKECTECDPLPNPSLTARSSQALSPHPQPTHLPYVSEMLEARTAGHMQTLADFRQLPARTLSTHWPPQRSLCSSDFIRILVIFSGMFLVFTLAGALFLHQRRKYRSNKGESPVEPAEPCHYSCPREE
As to the kind of experiment: flow cytometry on CD4+ T cells in human PBMC, FITC goat anti-human IgG F(ab')2, median FITC. As to the method:
Binding of IgG1-CD27-A-P329R-E345R to CD27 on human healthy donor T cells was characterized in more detail using flow cytometry. Anti-HIV gp120 antibody variant IgG1-b12-P329R-E345R was used as non-binding control antibody (ctrl). Human PBMCs were isolated from buffy coats obtained from human healthy donors. PBMC (1×10⁵ cells/well) in FACS buffer were added to polystyrene 96-well round-bottom plates (Greiner bio-one, Cat #650101) and pelleted by centrifugation at 300×g for 3 min at 4° C. The cells were resuspended in 50 μL/well serial antibody dilutions in FACS buffer (range 0.0015 to 10 μg/mL in 3-fold dilution steps) and incubated for 30 min at 4° C. Cells were pelleted, washed twice with FACS buffer and incubated in 50 μL/well with FITC-conjugated secondary antibody (FITC AffiniPure F(ab′)₂ fragment goat anti-human IgG, F(ab′)₂ fragment specific, Jackson ImmunoResearch, Cat #109-096-097, diluted 1:100) for 30 min at 4° C. in the dark. […] The samples were measured by flow cytometry on an LSRFortessa (BD) flow cytometer and analyzed using FlowJo software. Binding curves were analyzed using non-linear regression (sigmoidal dose-response with variable slope) using GraphPad Prism 8 software.
(In general: In flow cytometry, cells or beads pass a laser one at a time.)

For assay [2], the target named is T2, recombinant His-tagged human FcγRIIb (human, UniProt P31994 43-217).
T2 construct: Bought; captured on anti-His chip; not shown: His tag
T2 sequence (looked up): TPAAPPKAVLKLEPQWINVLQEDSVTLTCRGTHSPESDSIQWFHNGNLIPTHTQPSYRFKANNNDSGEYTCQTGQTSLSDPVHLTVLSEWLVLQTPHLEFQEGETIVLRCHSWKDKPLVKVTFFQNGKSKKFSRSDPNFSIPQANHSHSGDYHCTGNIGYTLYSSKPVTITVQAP
As to the kind of experiment: SPR (Biacore), His-tagged FcγRIIb captured on anti-His chip, antibody in solution, resonance units against antibody concentration. A general note: Surface plasmon resonance follows binding to a sensor surface in real time, without labels.

The target in assay [3] is T3, recombinant His-tagged human FcγRIIa (167-His [H]) (human, UniProt P12318 34-218, limits assumed).
T3 construct: Bought; captured on anti-His chip; also called FcγRIIa-H; not shown: His tag
T3 sequence (looked up): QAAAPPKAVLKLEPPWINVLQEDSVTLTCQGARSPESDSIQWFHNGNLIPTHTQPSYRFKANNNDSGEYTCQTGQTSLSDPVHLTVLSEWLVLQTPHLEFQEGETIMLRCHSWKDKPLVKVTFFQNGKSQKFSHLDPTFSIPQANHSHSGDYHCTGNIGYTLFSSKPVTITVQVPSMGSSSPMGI
As to the kind of experiment: SPR (Biacore), His-tagged FcγRIIa-H captured on anti-His chip, antibody in solution, resonance units against antibody concentration.

The target in assay [4] is T4, recombinant His-tagged human FcγRIIa (167-Arg [R]) (human, UniProt P12318 34-218, limits assumed).
T4 construct: Bought; captured on anti-His chip; also called FcγRIIa-R; not shown: His tag
T4 sequence (looked up): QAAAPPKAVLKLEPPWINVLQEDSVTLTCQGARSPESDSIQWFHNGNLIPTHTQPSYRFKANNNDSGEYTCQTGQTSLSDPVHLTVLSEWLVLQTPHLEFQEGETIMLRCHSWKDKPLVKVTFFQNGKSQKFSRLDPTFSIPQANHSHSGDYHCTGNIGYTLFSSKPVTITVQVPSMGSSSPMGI
As to the kind of experiment: SPR (Biacore), His-tagged FcγRIIa-R captured on anti-His chip, antibody in solution, resonance units against antibody concentration.

Assay [5] concerns the target T5, recombinant His-tagged human FcγRIIIa (176-Phe [F]) (human, UniProt P08637 17-208).
T5 construct: Bought; captured on anti-His chip; also called FcγRIIIa-F; not shown: His tag
As to the kind of experiment: SPR (Biacore), His-tagged FcγRIIIa-F captured on anti-His chip, antibody in solution, resonance units against antibody concentration.

A word on the EC50 (read off the curve): it is the concentration at which the effect is half-maximal. A lower EC50 (read off the curve) goes with greater potency.

T5 sequence (P08637 17-208 limits assumed): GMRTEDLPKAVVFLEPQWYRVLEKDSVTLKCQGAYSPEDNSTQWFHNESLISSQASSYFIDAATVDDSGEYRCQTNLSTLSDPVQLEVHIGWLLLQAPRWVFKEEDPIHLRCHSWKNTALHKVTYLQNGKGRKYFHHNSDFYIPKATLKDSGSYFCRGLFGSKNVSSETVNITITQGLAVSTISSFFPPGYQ

B1: IgG1-CD27-A-P329R-E345R (antibody)
heavy: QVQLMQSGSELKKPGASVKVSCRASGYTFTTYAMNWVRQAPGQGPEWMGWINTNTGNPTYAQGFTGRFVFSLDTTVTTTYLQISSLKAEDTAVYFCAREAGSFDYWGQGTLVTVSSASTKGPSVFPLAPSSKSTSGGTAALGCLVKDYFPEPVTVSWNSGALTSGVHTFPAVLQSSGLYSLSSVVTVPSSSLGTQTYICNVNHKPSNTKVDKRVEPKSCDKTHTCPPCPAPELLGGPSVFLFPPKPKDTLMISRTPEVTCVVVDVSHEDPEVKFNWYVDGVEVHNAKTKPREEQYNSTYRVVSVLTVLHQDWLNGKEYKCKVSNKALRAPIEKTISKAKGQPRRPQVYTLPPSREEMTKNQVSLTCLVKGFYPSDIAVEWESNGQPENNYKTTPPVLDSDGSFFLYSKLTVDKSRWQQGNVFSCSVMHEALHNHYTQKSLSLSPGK
light: QSALTQPASVSGSPGQSITISCTGTSSDVYYYNYVSWYQQHPGRAPKLVIYDVSNRPSGVSNRFSGSKSGNTASLTISGLRAEDEADYYCSSYTVNRVWVFGGGTKLTVLGQPKAAPSVTLFPPSSEELQANKATLVCLISDFYPGAVTVAWKADSSPVKAGVETTTPSKQSNNKYAASSYLSLTPEQWKSHRSYSCQVTHEGSTVEKTVAPTECS
notes: also called IgG1-CD27-A-E345R-P329R
For the molecule B1, the “EC50 (read off the curve)” value in assay [1] is about 0.03 µg/mL. Further, the binding result in assay [2], in assay [3], in assay [4] and in assay [5] was “no binding (tested: 10,000 nM)” each time.

(Values after patent US20250289899A1 (Genmab, published 2025).)
